Assay results taken from publication PMC6058493.

Legend:
[1] = molecular target: prostate-specific membrane antigen (PSMA) (UniProt Q04609); assay: competition (flow cytometry, confocal microscopy); details: 2'-fluoro pyrimidines; 3'-spacer-NH2 as purchased; cells incubated 30 min at room temperature, washed 3x with PBS; buffer, salt and pH of incubation not stated; scale: % cells bound by aptamer nanobubbles with excess free aptamer
[2] = molecular target: prostate-specific membrane antigen (PSMA) (UniProt Q04609); assay: flow cytometry and confocal microscopy on LNCaP cells; details: 2'-fluoro pyrimidines; 3'-spacer-NH2; cells incubated 30 min at room temperature, washed 3x with PBS; buffer, salt and pH of incubation not stated

Chain of UniProt Q04609 (Q04609 whole entry): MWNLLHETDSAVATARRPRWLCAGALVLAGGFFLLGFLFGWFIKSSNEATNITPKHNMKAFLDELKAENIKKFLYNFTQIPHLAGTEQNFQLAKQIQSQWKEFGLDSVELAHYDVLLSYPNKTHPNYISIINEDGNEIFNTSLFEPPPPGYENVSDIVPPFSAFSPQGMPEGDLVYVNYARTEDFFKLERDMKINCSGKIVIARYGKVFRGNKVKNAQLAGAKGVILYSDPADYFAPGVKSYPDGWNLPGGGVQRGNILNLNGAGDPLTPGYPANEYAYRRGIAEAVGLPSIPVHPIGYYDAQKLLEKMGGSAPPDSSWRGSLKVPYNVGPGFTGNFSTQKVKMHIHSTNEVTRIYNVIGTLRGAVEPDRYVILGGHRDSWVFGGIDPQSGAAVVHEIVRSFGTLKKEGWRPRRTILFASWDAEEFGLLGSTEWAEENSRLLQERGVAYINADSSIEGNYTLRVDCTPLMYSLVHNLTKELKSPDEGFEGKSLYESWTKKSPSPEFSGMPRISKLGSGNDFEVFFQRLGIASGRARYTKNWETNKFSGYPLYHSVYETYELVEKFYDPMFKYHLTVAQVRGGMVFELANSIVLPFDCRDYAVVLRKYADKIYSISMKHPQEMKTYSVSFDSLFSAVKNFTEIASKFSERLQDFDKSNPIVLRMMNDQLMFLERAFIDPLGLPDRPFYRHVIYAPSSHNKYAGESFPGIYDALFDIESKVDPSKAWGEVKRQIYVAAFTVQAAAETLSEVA

Sequence	binding signal [1]	binding signal (% cells bound) [2]
GGGAGGACGAUGCGGAUCAGCCAUGUUUACGUCACUCCU [A10-3.2 aptamer (free competitor)]	4.07	
GGGAGGACGAUGCGGAUCAGCCAUGUUUACGUCACUCCU [A10-3.2 aptamer on siFoxM1-Apt-CNBs]		82.4
